Positions count from the first letter of the chain named. Names and notes keep the numbering of the source. Where two headings read alike, the source gives them in different places. Blank lines part the entries; values can stand above or below the binder they belong to.
Legend:
Experiment in all cases: SPR
[1] = target: human V158 FcγRIIIa, extracellular region (human, UniProt P08637 17-208)
[2] = target: T1, human R131 FcγRIIa, extracellular region (human, UniProt P12318 34-217)
T1 chain: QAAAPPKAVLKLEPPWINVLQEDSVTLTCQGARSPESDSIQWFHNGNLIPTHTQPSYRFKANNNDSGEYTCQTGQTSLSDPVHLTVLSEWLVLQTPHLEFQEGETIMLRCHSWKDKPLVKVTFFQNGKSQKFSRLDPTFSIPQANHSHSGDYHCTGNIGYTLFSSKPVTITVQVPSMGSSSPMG

[3] = target: T2, human FcγRIIb, extracellular region (human, UniProt P31994 43-217)
T2 chain: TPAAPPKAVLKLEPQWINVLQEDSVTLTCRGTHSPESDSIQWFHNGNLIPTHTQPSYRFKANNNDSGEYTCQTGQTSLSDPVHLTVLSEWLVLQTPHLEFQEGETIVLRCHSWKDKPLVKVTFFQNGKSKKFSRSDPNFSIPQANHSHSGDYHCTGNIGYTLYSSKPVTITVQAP

[4] = target: human F158 FcγRIIIa, extracellular region (human, UniProt P08637 17-208)
Sequence of human F158 FcγRIIIa, extracellular region (P08637 17-208): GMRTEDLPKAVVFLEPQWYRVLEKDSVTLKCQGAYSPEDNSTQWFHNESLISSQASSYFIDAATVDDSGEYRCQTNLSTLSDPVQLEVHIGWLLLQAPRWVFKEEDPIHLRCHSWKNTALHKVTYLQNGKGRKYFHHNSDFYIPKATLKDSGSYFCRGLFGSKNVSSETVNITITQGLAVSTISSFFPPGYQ

[5] = target: T3, human FcγRI, extracellular region (human, UniProt P12314 16-292)
T3 chain: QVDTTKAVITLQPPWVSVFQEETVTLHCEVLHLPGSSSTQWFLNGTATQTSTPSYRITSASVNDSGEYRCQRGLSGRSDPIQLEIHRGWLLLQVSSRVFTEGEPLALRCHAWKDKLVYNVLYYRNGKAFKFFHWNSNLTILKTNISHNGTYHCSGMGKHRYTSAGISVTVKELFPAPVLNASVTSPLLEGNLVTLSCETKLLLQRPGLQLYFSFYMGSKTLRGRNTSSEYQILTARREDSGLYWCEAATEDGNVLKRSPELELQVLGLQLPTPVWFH

[6] = target: T4, human H131 FcγRIIa, extracellular region (human, UniProt P12318 34-217)
T4 chain: T1 chain with R134H

[7] = target: T1, human R131 FcγRIIa, extracellular region
[8] = target: T4, human H131 FcγRIIa, extracellular region

Sequence of human V158 FcγRIIIa, extracellular region (P08637 17-208 F176V): as the sequence (P08637 17-208) above, with F160V counted along it

B1: IgG2_S239D/I332E (antibody)
chain: ASTKGPSVFPLAPCSRSTSESTAALGCLVKDYFPEPVTVSWNSGALTSGVHTFPAVLQSSGLYSLSSVVTVPSSNFGTQTYTCNVDHKPSNTKVDKTVERKCCVECPPCPAPPVAGPDVFLFPPKPKDTLMISRTPEVTCVVVDVSHEDPEVQFNWYVDGVEVHNAKTKPREEQFNSTFRVVSVLTVVHQDWLNGKEYKCKVSNKGLPAPEEKTISKTKGQPREPQVYTLPPSREEMTKNQVSLTCLVKGFYPSDIAVEWESNGQPENNYKTTPPMLDSDGSFFLYSKLTVDKSRWQQGNVFSCSVMHEALHNHYTQKSLSLSPGK
- Kd [1]: 30.3 nM
- Kd [2]: 128 nM
- Kd [3]: 682 nM
- Kd [4]: 81.7 nM
- Kd [5]: 24.2 nM
- Kd [6]: 160 nM

B4: IgG2 WT (antibody)
chain: B1 chain with D118S, E211I
- Kd [2]: 4270 nM
- Kd [6]: 525 nM

The remaining lines, values ahead:

- Kd [1]: 19.4 nM
- Kd [2]: 161 nM
- Kd [3]: 232 nM
- Kd [4]: 36.3 nM
- Kd [5]: 13.2 nM
- Kd [6]: 122 nM
B2: IgG2_S239D/I332E/G327A (antibody)
chain: B1 chain with G206A

- Kd [7]: 4.27 µM
- Kd [8]: 525 nM
B3: WT IgG2 (antibody)
chain: B1 chain with D118S, E211I
